Earlier results, collected in article PMC2846645.
Read-outs that look alike come from different tables or passages of the source.

What was measured:
Assay in all cases: surface plasmon resonance
[1] = molecular target: GABAA receptor beta3 subunit 400-412 (UniProt P28472)
[2] = molecular target: GABAA receptor beta3 subunit 400-412 (UniProt P28472); remark: listed apart in the source
[3] = molecular target: GABAA receptor gamma2 subunit Y365/Y367 motif (UniProt P18507)

Substance: AP2 mu2 (from UniProt Q96CW1)
- Kd [1]: 1900 nM
- Kd [2]: 300 nM
- Kd [3]: 40 nM
